Article PMC3899036, “Subunit Positioning and Stator Filament Stiffness in Regulation and Power Transmission in the V1 Motor of the Manduca sexta V-ATPase^☆” (Journal of Molecular Biology, 2014)

B1: Manduca sexta V-ATPase subunit E (natural protein, Manduca sexta (tobacco hornworm), UniProt P31402 1-226, looked up)
chain: MALSDADVQKQIKHMMAFIEQEANEKAEEIDAKAEEEFNIEKGRLVQQQRLKIMEYYEKKEKQVELQKKIQSSNMLNQARLKVLKVREDHVRNVLDEARKRLAEVPKDIKLYSDLLVTLIVQALFQLVEPTVTLRVRQADKALVESLLGRAQQDYKAKIKKDVVLKIDNENFLPPDTCGGIELIAAKGRIKISNTLESRLELIAQQLLPEIRNALFGRNPNRKFTD
notes: V-ATPase subunit E, Manduca sexta; 26 kDa on SDS-PAGE; Seen as part of the V1 complex in the cryo-EM reconstruction; also called subunit E of the E/G stator filaments S1-S3; source: endogenous, within V1 purified from Manduca sexta

Tests used:
[1] = molecular target: recombinant His6-tagged V-ATPase subunit C (Manduca sexta) (UniProt Q9U5N1); test: SEC; V1 incubated with C-His6, Superose-6 column, 20 mM Tris-HCl, 100 mM NaCl, 10 mM KCl, 2 mM 2-mercaptoethanol, pH 8.0, 0.25 ml/min; fractions on SDS-PAGE with densitometry; apparent stoichiometry
Sequence of recombinant His6-tagged V-ATPase subunit C (Manduca sexta) (Q9U5N1 whole entry): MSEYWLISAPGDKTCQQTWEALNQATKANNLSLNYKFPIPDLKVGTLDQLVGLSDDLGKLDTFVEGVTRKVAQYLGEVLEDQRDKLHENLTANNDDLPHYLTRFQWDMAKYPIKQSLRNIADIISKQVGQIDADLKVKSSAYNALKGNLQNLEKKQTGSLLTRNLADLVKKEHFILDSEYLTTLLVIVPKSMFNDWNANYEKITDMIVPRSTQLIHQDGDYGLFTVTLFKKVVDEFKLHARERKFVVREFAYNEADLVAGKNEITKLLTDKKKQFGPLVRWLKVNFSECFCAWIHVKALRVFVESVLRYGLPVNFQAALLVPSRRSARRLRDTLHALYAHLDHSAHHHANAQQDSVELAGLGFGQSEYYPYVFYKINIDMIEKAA

[2] = molecular target: T1, Manduca sexta V-ATPase subunit B (Manduca sexta (tobacco hornworm), UniProt P31401 1-494); test: cryo-EM structure; V1 mixed with recombinant C for 1 h at 4 °C (1:5 V1:C molar ratio), Lacey grids, plunge-frozen; 20 Å reconstruction of V1(+C), homologous crystal structures fitted; details: both partners purified
T1 construct: V-ATPase subunit B, Manduca sexta; 56 kDa on SDS-PAGE; Seen as part of the V1 complex in the cryo-EM reconstruction; also called B subunits; source: endogenous, within V1 purified from Manduca sexta
T1 sequence (P31401 whole entry): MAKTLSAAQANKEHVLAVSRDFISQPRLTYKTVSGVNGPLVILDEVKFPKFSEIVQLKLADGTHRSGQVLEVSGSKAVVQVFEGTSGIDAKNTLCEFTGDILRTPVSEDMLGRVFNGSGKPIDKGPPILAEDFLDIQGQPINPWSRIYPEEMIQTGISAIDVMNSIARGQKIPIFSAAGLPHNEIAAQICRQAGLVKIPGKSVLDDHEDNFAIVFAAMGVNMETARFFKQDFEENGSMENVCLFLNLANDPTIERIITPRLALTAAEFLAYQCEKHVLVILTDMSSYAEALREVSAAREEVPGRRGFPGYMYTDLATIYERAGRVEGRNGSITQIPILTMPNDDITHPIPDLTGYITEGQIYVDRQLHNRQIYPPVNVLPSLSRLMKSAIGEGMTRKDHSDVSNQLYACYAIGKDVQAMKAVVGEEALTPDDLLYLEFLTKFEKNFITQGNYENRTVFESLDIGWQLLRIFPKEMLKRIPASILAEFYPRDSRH

Molecule	stoichiometry N (C per V1 (1 per H, 1 per 3 A)) [1]	binding result [2]
Manduca sexta V-ATPase V1 domain (deactivated, washed with 25% methanol to remove residual subunit C) (complex)	1	–
B1	–	binds
